This note sets out measurements from patent US20150166647A1 (VLST, published 2015).

Experiment [1] has as its target T1, human MIP-1α/CCL3 (human, UniProt P10147 24-92).
T1 construct: also called Biotin-MIP-1α
T1 sequence: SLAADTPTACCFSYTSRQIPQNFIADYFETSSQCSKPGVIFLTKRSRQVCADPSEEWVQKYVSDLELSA
The experiment in a line: BIAcore (SPR).

The target in experiment [2] is T1, human MIP-1α/CCL3. As to the kind of experiment: cell-based or functional assay.
Experiment [3] has as its target T2, human RANTES/CCL5 (human, UniProt P13501 24-91).
T2 sequence: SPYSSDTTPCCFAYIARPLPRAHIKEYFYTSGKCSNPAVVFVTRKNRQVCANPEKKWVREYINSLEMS
As to the kind of experiment: cell-based or functional assay.

The target of experiment [4] is T3, mouse MIP-1α/CCL3 (mouse, UniProt P10855 24-92).
T3 construct: also called muMIP-1α
T3 sequence: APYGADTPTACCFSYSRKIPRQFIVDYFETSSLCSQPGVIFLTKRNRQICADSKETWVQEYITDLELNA
As to the kind of experiment: MSD electrochemiluminescence, chemokine coated at 1 µg/mL.

Experiment [5] has as its target T4, mouse MIP-1β/CCL4 (mouse, UniProt P14097 24-92).
T4 construct: also called muMIP-1β
T4 sequence: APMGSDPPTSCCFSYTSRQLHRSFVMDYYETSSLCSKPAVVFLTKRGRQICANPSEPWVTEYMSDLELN
Described as above.

In experiment [6] the target is T5, mouse RANTES/CCL5 (mouse, UniProt P30882 24-91).
T5 construct: also called muRANTES
T5 sequence (P30882 24-91 limits assumed): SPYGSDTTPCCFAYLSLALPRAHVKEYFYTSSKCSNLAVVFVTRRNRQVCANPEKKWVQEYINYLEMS
Described as above.

Experiment [7] deals with T1, human MIP-1α/CCL3. The experiment in a line: ELISA, hybridoma fusion-well supernatant on coated MIP-1α; background approx. 0.150. (In an ELISA, binding on a coated surface is turned into a signal by an enzyme label.)
Experiment [8] deals with T6, I-309.
T6 construct: also called I-309/CCL1; CCL1
T6 chemokine: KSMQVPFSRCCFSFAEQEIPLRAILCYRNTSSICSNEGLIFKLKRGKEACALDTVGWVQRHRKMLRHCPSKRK
As to the kind of experiment: MSD electrochemiluminescence assay; chemokine coated at 1 µg/mL, 3C12F at 3 µg/mL; background = BSA.

In experiment [9] the target is T7, IL-8.
T7 construct: also called IL-8/CXCL8; CXCL8
T7 sequence (chemokine, as listed by the source): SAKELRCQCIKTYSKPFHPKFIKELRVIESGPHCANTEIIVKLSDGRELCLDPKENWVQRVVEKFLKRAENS
Described as above.

Experiment [10] deals with T8, SDF.
T8 construct: also called SDF-1/CXCL12; CXCL12
T8 sequence (chemokine, as listed by the source): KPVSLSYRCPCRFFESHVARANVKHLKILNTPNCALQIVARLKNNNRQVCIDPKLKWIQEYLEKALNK
The description is as above.

Experiment [11] concerns the target T9, HCC-4.
T9 construct: also called HCC-4/CCL16; CCL16
T9 chemokine: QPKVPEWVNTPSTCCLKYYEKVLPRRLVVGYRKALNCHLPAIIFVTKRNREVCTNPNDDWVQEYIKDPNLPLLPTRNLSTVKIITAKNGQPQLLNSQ
The experiment is described as above.

The target of experiment [12] is T10, MCP-3.
T10 construct: also called MCP-3/CCL7; CCL7
T10 sequence (chemokine, as listed by the source): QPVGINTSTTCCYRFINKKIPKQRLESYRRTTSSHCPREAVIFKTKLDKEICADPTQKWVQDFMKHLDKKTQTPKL
Described as above.

The target in experiment [13] is T11, MCP-4.
T11 construct: also called MCP-4/CCL13; CCL13
T11 sequence (chemokine, as listed by the source): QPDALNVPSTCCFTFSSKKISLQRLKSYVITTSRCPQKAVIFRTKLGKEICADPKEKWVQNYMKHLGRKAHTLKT
The experiment is described as above.

Experiment [14] has as its target T12, MDC.
T12 construct: also called MDC/CCL22; CCL22
T12 chemokine: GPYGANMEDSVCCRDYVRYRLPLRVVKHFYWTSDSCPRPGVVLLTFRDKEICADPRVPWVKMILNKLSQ
The description is as above.

Experiment [15] concerns the target T13, ELC.
T13 construct: also called ELC/MIP-3β/CCL19; CCL19
T13 chemokine: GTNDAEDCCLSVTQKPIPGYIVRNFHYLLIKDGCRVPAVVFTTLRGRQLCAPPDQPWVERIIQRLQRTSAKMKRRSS
The experiment is described as above.

For experiment [16], the target named is T14, human MPIF-1/CCL23 (human, UniProt P55773 46-120).
T14 sequence: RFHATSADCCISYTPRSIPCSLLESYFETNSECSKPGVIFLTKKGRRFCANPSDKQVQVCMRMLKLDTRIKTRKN
Described as above.

For experiment [17], the target named is T15, human HCC-2/MIP-1δ/CCL15 (human, UniProt Q16663 46-113).
T15 sequence: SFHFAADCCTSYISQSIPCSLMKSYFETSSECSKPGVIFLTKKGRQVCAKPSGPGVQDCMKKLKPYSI
The description is as above.

Experiment [18] deals with T16, human HCC-1/CCL14/CCL14a (human, UniProt Q16627 28-93).
T16 sequence: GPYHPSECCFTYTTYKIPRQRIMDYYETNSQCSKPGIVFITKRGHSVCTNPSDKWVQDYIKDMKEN
Described as above.

Experiment [19] addresses T17, human PARC/CCL18 (human, UniProt P55774 21-89).
T17 sequence: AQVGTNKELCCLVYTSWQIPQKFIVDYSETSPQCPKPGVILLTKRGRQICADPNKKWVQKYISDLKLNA
The experiment is described as above.

In experiment [20] the target is T18, human MCP-1/CCL2 (human, UniProt P13500 24-99).
T18 construct: also called Biotin-MCP1
T18 sequence (P13500 24-99 limits assumed): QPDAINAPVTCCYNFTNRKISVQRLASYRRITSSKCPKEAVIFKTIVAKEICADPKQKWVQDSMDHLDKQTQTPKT
The description is as above.

The target of experiment [21] is T19, human MIP-1β/CCL4 (human, UniProt Q8NHW4 24-92).
T19 construct: also called Biotin-MIP-1β
T19 chain: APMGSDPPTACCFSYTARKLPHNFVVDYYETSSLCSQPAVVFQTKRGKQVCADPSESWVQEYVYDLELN
As to the kind of experiment: ELISA, hybridoma fusion-well supernatant on biotinylated chemokine on streptavidin plate; background approx. 0.150.

The target of experiment [22] is T2, human RANTES/CCL5. The description is as above.
Experiment [23] has as its target T18, human MCP-1/CCL2. The experiment is described as above.

B1: monoclonal antibody 3C12F (antibody, V domains shown)
VH: EVQLQQSGAELVKPGASVKLSCTASGFNIKDTYIHWVKQRPEQGLEWIGRIDPANGNTQYDPKFQGKATITADTSSNTAYLQLTSLTSEDTAVYYCARRWDYDYAMDYWGQGTSVTVSS
VL: DIQMTQSPASLSASVGETVTITCRGSGNIHNYLAWYQQKQGKSPQLLVYNAKTLADGVPSRFSGSGSGTQYSLKINSLQPEDFGSYYCQHFWSTPYTFGGGTKLEIK
notes: also called MAb 3C12F
Turning to B1, the Kd in experiment [1] came to 49 nM. In addition, the “IC50 of inhibition of chemotaxis (5 ng/mL chemokine)” value in experiment [2] and in experiment [3] was 3 to 5 µg/mL in each case. Also, the binding result in experiment [4], in experiment [5], in experiment [6], in [8], in [9] and in [10] was “no binding (tested: 3 µg/mL)” in each case. In addition, the binding result in experiment [11] is reported as “no binding (tested: 3 µg/mL)”; in experiment [12] it was “no binding (tested: 3 µg/mL)”; in [13], “no binding (tested: 3 µg/mL)”; in experiment [14], “no binding (tested: 3 µg/mL)”; in experiment [15], “no binding (tested: 3 µg/mL)”; in experiment [16], “binds”. Further, the binding result in experiment [17] is recorded as “binds”; in experiment [18] it was “no binding (tested: 3 µg/mL)”; in experiment [19], “no binding (tested: 3 µg/mL)”; in experiment [20] it was “no binding (tested: 3 µg/mL)”. Moreover, the ELISA signal in experiment [7] amounted to 1.84; in [21], 1.92; in [22], 2.61; in [23], 0.189.

A word on the Kd: it is the free concentration of one partner at which half of the binding sites on the other are occupied at equilibrium, for simple one-to-one binding. A lower Kd goes with tighter binding.
